Patent US20050064507A1, “Determining kinase specificity” (priority 2003, published 2005)

Target: T1, PKC-theta (Homo sapiens, UniProt Q04759)
T1 construct: His-tag; made in house; host or cells: baculovirus-infected Sf9 cells
Assay: In vitro kinase assay: peptide phosphorylation by PKC-theta
Assay type: biochemical
Text: A second strategy for validation of the PSSM derived from the methods described herein is to identify sequences represented in the human proteome that have low percentiles derived from the PSSM, to synthesize peptides that have those sequences, and test the efficiency of phosphorylation of those peptides by the kinase of interest. […] The results are shown for individual peptides (FIG. 11, panel A) or for groups of peptides aggregated by percentile prediction (FIG. 11, panel B). As with the testing described above with prospectively chosen peptides, the percentile scores are highly predictive of phosphorylation by the relevant kinase.
An example of the purification procedure used for production of active kinase is as follows. A preparation of PKC-theta was prepared using a Gateway expression construct containing PKC-theta that was expressed in baculovirus, which were used to infect Sf9 cells. The cell pellet from a liter of baculovirus-infected Sf9 cells was resuspended in 20 volumes (60 ml) of extraction buffer (20 mM Na phosphate buffer pH 7.5, 500 mM NaCl, 5 mM pyrophosphate, 10% glycerol, 10 mM imidazole, 1 mM PMSF), sonicated twice for one minute (1 cm tip at 60% power and 50% duty cycle) and cell disruption was verified microscopically. The sample was adjusted to five mM MgCl2 and treated with one U benzonase/ml for an additional 20 minute on ice. The sample was clarified by centrifugation in a JA-20 rotor at 15K for 30 min at 4° C., filtered through a […] filter and applied at 0.5 ml/min to a one ml chelating sepharose column previously charged with nickel and equilibrated with extraction buffer. The column was washed with extraction buffer at one ml/min to baseline and eluted in a 20 ml gradient (20-500 mM imidazole in extraction buffer) into one ml fractions that were analyzed by SDS-PAGE. Fractions with the highest concentration of protein were pooled, were dialyzed twice against one liter of 20 mM Na PO4 pH 7.5, 50 mM NaCl buffer. The kinase pool was dialyzed twice against 20 mM HEPES pH 7.4, 100 mM NaCl, 2 mM EDTA, 5 mM DTT, 0.05% Triton-X-100. After dialysis, the sample was adjusted to 50% glycerol and quick-frozen in a dry ice/ethanol bath.
The conditions of the kinase assay and the amount of active kinase used varied with the kinase and with the accuracy needed. For a typical experiment, 5-20 ng of kinase was used per well and each peptide pool was assayed in duplicate wells. Note that the absolute amount of kinase used was not usually a critical parameter, because the desired information related to specificity of the kinase not its absolute activity, and robustness of the assay depends on comparisons of the same amount of kinase on different peptides. The combination of kinase concentration and assay duration was modified to assure that the stoichiometry of peptide phosphorylation never exceeded 5%. The choice of kinase buffer depended on the kinase being analyzed. For studies of PKC, 100 mM HEPES, 0.05% Triton-X100, 1 mM CaCl2, 20 mM MgCl2, 0.2 mg/ml phosphatidyl serine (Avanti Polar Lipids), PMA 100 ng/ml was typically used. The lipid stock was prepared by transferring 3 mg phosphatidyl serine into iced mixture of 450 μl water plus 50 μl of 10% Triton-X100, sonicating 10 times on ice for 1 sec each.
The kinase reaction mixture was assembled by sequential addition to a tube held on ice of: 5 μl peptide (100 μM for final concentration of 10 μM), 15 μl of kinase (typically 5 ng/well, in appropriate kinase buffer), 30 μl of ATP (1 uCi/well of ^32P-gamma ATP in a stock of 167 μM cold ATP in the kinase buffer; for final concentration for 100 μM ATP). The mixture was rapidly warmed to desired reaction temperature (30° C. for PKC) and incubated for the desired duration (usually 10 minutes). The kinase assay was terminated by transfer to 4° C. water batch, and rapid addition of an equal volume (50 μl) of stop solution [0.1M ATP+0.1M EDTA in water, pH 8]. […]

T1 sequence (Q04759 whole entry): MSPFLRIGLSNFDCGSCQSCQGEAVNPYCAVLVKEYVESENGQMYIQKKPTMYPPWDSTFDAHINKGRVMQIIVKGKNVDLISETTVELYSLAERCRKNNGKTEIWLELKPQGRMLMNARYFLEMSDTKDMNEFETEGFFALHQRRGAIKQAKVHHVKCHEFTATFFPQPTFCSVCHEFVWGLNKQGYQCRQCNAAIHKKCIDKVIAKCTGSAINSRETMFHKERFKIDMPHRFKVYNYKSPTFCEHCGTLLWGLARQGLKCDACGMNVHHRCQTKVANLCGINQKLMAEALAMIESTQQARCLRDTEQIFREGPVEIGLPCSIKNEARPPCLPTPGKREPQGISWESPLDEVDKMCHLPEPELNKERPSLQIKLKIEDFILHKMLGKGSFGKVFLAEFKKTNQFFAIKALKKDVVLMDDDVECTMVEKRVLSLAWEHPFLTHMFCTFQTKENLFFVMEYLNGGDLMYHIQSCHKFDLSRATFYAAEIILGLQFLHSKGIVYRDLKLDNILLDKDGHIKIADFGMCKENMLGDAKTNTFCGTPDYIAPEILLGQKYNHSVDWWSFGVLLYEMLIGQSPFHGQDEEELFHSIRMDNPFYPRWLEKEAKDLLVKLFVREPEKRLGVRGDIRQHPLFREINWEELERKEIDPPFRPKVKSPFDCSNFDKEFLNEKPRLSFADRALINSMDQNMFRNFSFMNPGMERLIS

| Substance | phosphorylation by PKC theta (peptide concentration 1 uM) | phosphorylation by PKC theta (peptide concentration 10 uM) | Peptide phosphorylation by PKC-theta (Table 8) |
| --- | --- | --- | --- |
| 114 (KKKKRASFKRKSSKKG) [compound 114] | 100 | 86 |  |
| 115 (NRKKKRTSFKRKA) [compound 115] | 89 | 77 |  |
| 116 (EEGTFRSSIRRLSTRRR) [compound 116] | 83 | 78 |  |
| 117 (NRKKKRTSFKRKA) [compound 117] | 84 | 78 |  |
| 118 (RPQNTLKASKKKKRASFKRK) [compound 118] | 67 | 52 |  |
| 119 (KKRFSFKKSFKLSGFSFKKN) [compound 119] | 69 | 28 |  |
| 120 (AKRRRLSSLRASTSK) [compound 120] | 51 | 51 |  |
| 121 (LRRRSLRRSNSISKSPGP) [compound 121] | 51 | 57 | 57 |
| 122 (RAITSTLASSFKRRR) [compound 122] | 66 | 42 |  |
| 123 (KKRFSFKKSFKLSGFSFKKN) [compound 123] | 47 | 32 |  |
| 124 (PRLIRRGSKKRPAR) [compound 124] | 53 | 57 |  |
| 125 (PLKEKKRERKTSSKSSVRKR) [compound 125] | 39 | 100 |  |
| 126 (KAIKAIEGGQKFARKSTRRS) [compound 126] | 46 | 45 |  |
| 127 (SQVQKQRSAGSFKRNSIKKI) [compound 127] | 45 | 58 |  |
| 128 (QQVDRERPHVRRRRGTFKRS) [compound 128] | 41 | 59 |  |
| 129 (VQRHRSMRKTFARYLSFRRD) [compound 129] | 48 | 25 |  |
| 130 (EYLERRASRRRAV) [compound 130] | 38 | 44 |  |
| 131 (WKGKRRSKARKKRK) [compound 131] | 53 | 35 |  |
| 132 (GFLNEPLSSKSQRRKSLKLK) [compound 132] | 34 | 40 |  |
| 133 (LEKRGMLGKRPRRKSSRRKK) [compound 133] | 46 | 53 |  |
| 134 (RSRSRSRSKSKDKRKSRKRS) [compound 134] | 36 | 16 |  |
| 135 (KKKFRTPSFLKKSKK) [compound 135] | 30 | 36 |  |
| 136 (RARRDSLKKIEIW) [compound 136] | 42 | 28 |  |
| 137 (PSKSPSKKKKKFRTPSFLKK) [compound 137] | 40 | 19 |  |

| Substance | phosphorylation by PKC theta (peptide concentration 1 uM) | phosphorylation by PKC theta (peptide concentration 10 uM) | Peptide phosphorylation by PKC-theta (Table 8) |
| --- | --- | --- | --- |
| 138 (EYLERRASRRRAV) [compound 138] | 34 | 39 |  |
| 139 (RPTPGDGEKRSRIKKSKKRK) [compound 139] | 31 | 17 |  |
| 140 (TELEGGFSRQRKRKLSFRRR) [compound 140] | 25 | 35 |  |
| 141 (VTDSQKRREILSRRPSYRKI) [compound 141] | 29 | 28 |  |
| 142 (ERHVAQKKSRLRRRASQLKI) [compound 142] | 28 | 37 |  |
| 143 (VRYTPYTISPYNRKGSFRKQ) [compound 143] | 25 | 27 |  |
| 144 (LSSMFGTLPRKSRKGSVRKQ) [compound 144] | 35 | 22 |  |
| 145 (ISDFGLAKKLAVGRHSFSRR) [compound 145] | 27 | 25 |  |
| 146 (QAQRQIKRGAPPRRSSIRNA) [compound 146] | 33 | 34 |  |
| 147 (RDIRQSPKRGFLRSASLGRR) [compound 147] | 20 | 69 |  |
| 154 (KKFFTQGWAGWRKKTSFRKP) [compound 154] | 34 | 21 |  |
| 155 (RWDKRRWRKIPKRPGSVHRT) [compound 155] | 23 | 26 |  |
| 156 (SAQITIPKDGQKRKKSLRKK) [compound 156] | 18 | 23 |  |
| 157 (PSPSNETPKKKKKRFSFKKS) [compound 157] | 20 | 23 |  |
| 158 (VQMTWSYPDEKNKRASVRRR) [compound 158] | 19 | 23 |  |
| 159 (LYARLARAYRRSQRASFKRA) [compound 159] | 21 | 17 |  |
| 160 (PFEVVWYKDKRQLRSSKKYK) [compound 160] | 19 | 25 |  |
| 161 (KYKAFIRIPIPTRRHTFRRQ) [compound 161] | 19 | 23 |  |
| 162 (KKKFSFKKPFKLSGLSFKRN) [compound 162] | 14 | 13 |  |
| 163 (PPRTPGWHQLQPRRVSFRGE) [compound 163] | 14 | 11 |  |
| 164 (TEGKMARVAWKGKRRSKARK) [compound 164] | 24 | 20 |  |
| 165 (TEEKSKKRKKKHRKNSRKHK) [compound 165] | 16 | 14 |  |
| 166 (MAQIERGEARIQRRISIKKA) [compound 166] | 13 | 13 |  |
| 167 (GLPAPGEDKSIYRRGSRRWR) [compound 167] | 12 | 14 |  |
